The source of these data is the supplement of paper PMC12764529.

± gives the half width of the 95% confidence interval.

Series [1] can be described thus: folding stability dG unfold from trypsin proteolysis; higher = more stable. The method, boiled down: (§1)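 Digests were run with trypsin and chymotrypsin at 11 concentrations in threefold dilutions, plus a no-protease condition, on designed mini-proteins in a PA-tagged cDNA display construct. The mini-proteins were under 80 residues, had no cysteine, and were kept only when AlphaFold2 dimer inter-PAE was above 15. After sequencing, Bayesian fitting of the counts gave K50, from which unfolding free energy was derived against a sequence-predicted unfolded-state K50 and a shared folded-state K50, per protease or combined.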

A short description of series [2]: folding stability dG unfold from chymotrypsin proteolysis; higher = more stable. In short, it runs like this:
as §1

Series [3] can be described thus: folding stability dG unfold (combined trypsin and chymotrypsin); higher = more stable. In short, it runs like this: as §1

As for “SAGGSAGGEWVIINIMFRFPPGDPNIKIEIKFPGLPKDMKIEYSIFPTDNWYYIMVSIWVPPNASAGGSAGG [r6_482_TrROS]”, the “folding stability dG unfold” value in series [1] is 3.66 ± 0.29 kcal/mol; in series [2], 5.16 ± 0.15 kcal/mol; in series [3], 4.85 ± 0.34 kcal/mol.

Turning to “SAGGSAGGFKIRPIGVDDNYIVFRFRPDDPEALKKLGFKITGVEESGGSVEIIFRMPPEAKDLISAGGSAGG [r6_109_TrROS]”, the “folding stability dG unfold” value in series [1] turned out to be 0.781 ± 0.12 kcal/mol; in series [2], 0.399 ± 0.16 kcal/mol; in series [3], 0.584 ± 0.12 kcal/mol.

As to “SAGGSAGGGDAESYAKEKGFVEIKVTKLPDGSERVTAKYPDGTTADILYTPGQGTFTLLETKKESAGGSAGG [r6_906_JUSTAS]”, the results for the “folding stability dG unfold” value in series [1], in series [2] and in series [3] were 0.154 ± 0.034 kcal/mol, 0.407 ± 0.082 kcal/mol and 0.332 ± 0.078 kcal/mol, respectively.

On to “SAGGSAGGGGPGAPAVPTVSINIKIEEGEKVTIRNGTNKDEIIKSTKEEAEKKGKKVTVETVEGSAGGSAGG [r6_869_JUSTAS]”, for which the figures for the “folding stability dG unfold” value in series [1], in series [2] and in series [3] were -0.273 ± 0.28 kcal/mol, 1.26 ± 0.24 kcal/mol and 0.883 ± 0.28 kcal/mol, respectively.

Take “SAGGSAGGGKVLLEIYVPSEVPSVEELVEKLESEGFEVVKVESVPEGDYVRILVEKDVPPESIESAGGSAGG [r6_601_TrMRF]”: the “folding stability dG unfold” value worked out at 1.28 ± 0.066 kcal/mol in series [1], 1.71 ± 0.15 kcal/mol in series [2] and 1.57 ± 0.11 kcal/mol in series [3].

Take “SAGGSAGGGLDPVPIKRVTVLRNPETDEYVVLIENEDGLPYAFPFDSLEDAERFVRRLVEEGYLSAGGSAGG [r6_65_TrMRF]”: the “folding stability dG unfold” value in series [1] is 4.76 ± 0.09 kcal/mol; in series [2], 5.01 ± 0.061 kcal/mol; in series [3] it was 4.967 ± 0.047 kcal/mol.

“SAGGSAGGGLIEIIPNTLKAKIINPKTGKVEEIEFSNIDELIEEIKKKYPNVDFKILPNGIILGSAGGSAGG [r6_286_TrMRF]”: the results for the “folding stability dG unfold” value in series [1], in series [2] and in series [3] were 3.14 ± 0.16 kcal/mol, 2.82 ± 0.07 kcal/mol and 3.05 ± 0.19 kcal/mol, respectively.

Consider “SAGGSAGGGMMLTLSSQTTQTSYDPSGLSTTLSLTTNPLGGTTVVTTTTVPGTGEVSVTTTPSSSAGGSAGG [r6_977_JUSTAS]”, for which the “folding stability dG unfold” value in series [1] stood at 1.32 ± 0.024 kcal/mol; in series [2] it was 0.508 ± 0.065 kcal/mol; in series [3], 1.04 ± 0.045 kcal/mol.

Regarding “SAGGSAGGGMPMNIKVEEITSETIPPDVTVSETKVIDPSGKELKYLTVTTVRTDGKTSVLTVEGSAGGSAGG [r6_830_JUSTAS]”, the figures for the “folding stability dG unfold” value in series [1], in series [2] and in series [3] were 0.201 ± 0.087 kcal/mol, -0.58 ± 0.56 kcal/mol and -0.0271 ± 0.31 kcal/mol, respectively.

With “SAGGSAGGGMVKREIKVTVTRLPESDVWLVTVTTKIGDKWEIIPVPVAAPADLSAEELAKEVLESAGGSAGG [r6_21_JUSTAS]”, the “folding stability dG unfold” value in series [1] was 1.09 ± 0.036 kcal/mol; in series [2] it was 0.751 ± 0.087 kcal/mol; in series [3] it was 0.939 ± 0.11 kcal/mol.

As to “SAGGSAGGGPRAVPVGELELVLGDLVVRVRFFRNPESDSVSVRVEVRPLPPISAEELARLGEEGSAGGSAGG [r6_177_TrMRF]”, the “folding stability dG unfold” value was found to be 1.67 ± 0.062 kcal/mol in series [1], 3.52 ± 0.049 kcal/mol in series [2] and 2.91 ± 0.15 kcal/mol in series [3].

Take “SAGGSAGGGRLLIDRAFDSLEDIEEFLRELETPALVHLPDGTELFYERGDGFTEIHVIPPGELGSAGGSAGG [r6_641_TrMRF]”: the figures for the “folding stability dG unfold” value in series [1], in series [2] and in series [3] were 0.277 ± 0.072 kcal/mol, 1.26 ± 0.053 kcal/mol and 1 ± 0.099 kcal/mol, respectively.

In the case of “SAGGSAGGGRRLLIEADSEELRELLEALPPEELKNVRVYGPGGVEFPAGEIEKYKYGPLLIEVPSAGGSAGG [r6_428_TrMRF]”, the “folding stability dG unfold” value in series [1] is 0.174 ± 0.099 kcal/mol; in series [2] it was 0.756 ± 0.18 kcal/mol; in series [3] it was 0.669 ± 0.1 kcal/mol.

Regarding “SAGGSAGGGSLTPLSEDETTITLRLSPSLDEVLKELGLTVTGVEEEGETVTVTVKVSPEVKEKLSAGGSAGG [r6_109_JUSTAS]”, the “folding stability dG unfold” value was 0.13 ± 0.062 kcal/mol in series [1], -0.183 ± 0.2 kcal/mol in series [2] and 0.00369 ± 0.19 kcal/mol in series [3].

In the case of “SAGGSAGGGSLTVTTDPDGTQTVTLPDGRTFTFTNPYGVTRLVRARPDDGFEVWLQVDGKWYPLSAGGSAGG [r6_903_TrMRF]”, the “folding stability dG unfold” value in series [1] stood at 0.96 ± 0.022 kcal/mol; in series [2] it was 1.88 ± 0.053 kcal/mol; in series [3] it was 1.57 ± 0.031 kcal/mol.

Regarding “SAGGSAGGGTIEIEDPNGVKVEIEIDPDDGYTIIKAFMPDGWVITILMPPEGKIEIETFPLEPPSAGGSAGG [r6_415_TrROS]”, the “folding stability dG unfold” value was found to be 1.92 ± 0.26 kcal/mol in series [1], 2.96 ± 0.23 kcal/mol in series [2] and 2.43 ± 0.35 kcal/mol in series [3].

“SAGGSAGGGVYLNGLLPGGVALLSAPTASGEYTLILISPDNRALIFSYPADTGTPRVAEIDLPTSAGGSAGG [r6_159_TrMRF]”: the “folding stability dG unfold” value was 0.577 ± 0.062 kcal/mol in series [1], 1.87 ± 0.065 kcal/mol in series [2] and 1.49 ± 0.11 kcal/mol in series [3].

On to “SAGGSAGGITPDDYFLIKLNAVVKLPNGDIVELKKDEVILAKADDVEILHADDIEIYPIGRDKLSAGGSAGG [r6_810_TrMRF]”, for which the “folding stability dG unfold” value was 0.23 ± 0.048 kcal/mol in series [1], -0.503 ± 0.29 kcal/mol in series [2] and -0.0393 ± 0.22 kcal/mol in series [3].

As to “SAGGSAGGIWFMIKSAEDLKNLLNKWGWTIKDISVERWENDDGYVWIPIKIKPVPPPPPPEEDKSAGGSAGG [r6_981_TrROS]”, the “folding stability dG unfold” value in series [1] turned out to be 2.36 ± 0.086 kcal/mol; in series [2], 3.77 ± 0.061 kcal/mol; in series [3], 3.06 ± 0.44 kcal/mol.

For “SAGGSAGGIWIPVPDGYWIKIEMPDNNGEPKATHEMDSPADVEEALEEMPPDNLTKVEIWPLPDSAGGSAGG [r6_705_TrROS]”, the “folding stability dG unfold” value was found to be 0.875 ± 0.16 kcal/mol in series [1], 0.902 ± 0.21 kcal/mol in series [2] and 0.532 ± 0.71 kcal/mol in series [3].

In the case of “SAGGSAGGKEIKVIELPEEKVTIEVTITLEDGTVIKVTAVIDAETGEIVEITSVEIVPLPAEEKSAGGSAGG [r6_927_TrROS_Hall]”, the “folding stability dG unfold” value in series [1] is -0.122 ± 0.11 kcal/mol; in series [2], 1.88 ± 0.2 kcal/mol; in series [3] it was 1.36 ± 0.21 kcal/mol.

On to “SAGGSAGGKEPFTVDKVEATVPFPGADGTEGVVLVTLPNGEKRLIPASELPLENLQPDGTVSSASAGGSAGG [r6_609_TrMRF]”, for which the “folding stability dG unfold” value in series [1] came out at 0.161 ± 0.034 kcal/mol; in series [2], 0.328 ± 0.037 kcal/mol; in series [3], 0.302 ± 0.11 kcal/mol.

Take “SAGGSAGGKIEIVFETPSGDIVPITYDPKTKKVDVTVRNKDGKPSEELKEKAIELAKKLIEELESAGGSAGG [r6_224_TrMRF]”: the “folding stability dG unfold” value came out at 0.29 ± 0.25 kcal/mol in series [1], 1.05 ± 0.15 kcal/mol in series [2] and 0.519 ± 0.26 kcal/mol in series [3].

On to “SAGGSAGGKITLLDEEEIEEVAKELGIDPENIRVIKVENEIIAILSKAKPLTPEKLKEIVEKLKSAGGSAGG [r6_243_JUSTAS]”, for which the “folding stability dG unfold” value stood at 1.06 ± 0.021 kcal/mol in series [1], 0.686 ± 0.029 kcal/mol in series [2] and 0.934 ± 0.055 kcal/mol in series [3].

Take “SAGGSAGGKKKIIKIKNKDGEYLIKVKTKDGKTVEFKKFKSLEEALKALPKEKIEKIEIIPLKKSAGGSAGG [r6_307_TrROS_Hall]”: the “folding stability dG unfold” value in series [1] stood at 1.64 ± 0.085 kcal/mol; in series [2], 2.4 ± 0.1 kcal/mol; in series [3], 2.06 ± 0.42 kcal/mol.

For “SAGGSAGGKKKTIVIKADSLEELKAALEALPEKVEVRLPNGETITLEVDGKKVEIKVISPEELKSAGGSAGG [r6_641_TrROS_Hall]”, the “folding stability dG unfold” value in series [1] stood at 0.448 ± 0.039 kcal/mol; in series [2], 0.959 ± 0.048 kcal/mol; in series [3], 0.753 ± 0.14 kcal/mol.

Regarding “SAGGSAGGKKLTAEELAKKLKELIPDVEKVEIVSVDKKTKKVTIKVKTKKEKEKIKEALKELLKSAGGSAGG [r6_635_TrROS_Hall]”, the “folding stability dG unfold” value amounted to 0.56 ± 0.064 kcal/mol in series [1], 0.816 ± 0.048 kcal/mol in series [2] and 0.65 ± 0.1 kcal/mol in series [3].
